Assay: soluble on expression in E. coli; label from the status in PepcDB or PDB records
In the case of “MDTLQNMRAFSSVAQAGSFTAAAAVLDTTTANVSRAVSNLEAHLQTRLLNRTTRRIALTEAGKRYLLRCEQILASVEEAEAEASDAHARPAGQLKVHSMPGVGQHYVIDAIARYRRNHPDVAFDLTMTHRVPDLLEEGFDVSIVLASELADSGFVSQRLGITYSIVCASPEYVKTFGMAHKPADLLNHACLRLVSPVFPLDKWLFDGPEGQEMVTINSSPLLVNSADAMKTAISSGMGIGILPIYSAIEGLRNGTLVRVLSDYRSQELNLYAIYPSRQYLDAKIRTWVEYLRGSLPEILAADEADLHVQALKASC”, the “soluble on expression in E. coli” value is reported as “not soluble”.
With “ARKLFVLDTNVLLHDPSSLFRFEEHDIFLPMMTLEELDHQKKGMSEVARNARQVSRSLDSLVQDADNLDDGLALNALGNKDATGRLMFQTTAIHSTLPSDLPMGKADNQILGVVRALQERHPQREVVLVSKDINMRLKARALGMAAEDYYNDHVLEDTDLMYS” the “soluble on expression in E. coli” value was “not soluble”.
For “MVTFNCEVCNDTVPKKNTEKHYYRCPNAYYTCIDCSKTFEDGVSYKNHTSCISEDEKYQKALYKGNKKQKQKQQQKQQQKQHQHQPVATPAKKVEKPVIKKAEKVEKTSNGIELHKGKSLYKILKTMKDKGAKKTFLKSLVVDSEGQIRYAKE”, the “soluble on expression in E. coli” value was “soluble”.
In the case of “MGSDKIHHHHHHMKQPLYQQIIDYLQNEIDSGRLPVGAQVPTEKELSAQFNVSRITSKRALTELETQGVIQRHQGKGSFVQAPKHPLHTSLNKVLFLLPFADDLSVGNFYSGLAPTIQAAGLEVFMTSPNFLREKNAADIVNEFAGLVYYAATSNDYLDLLFELALMNFPVVVLDKKIHDLPFATIQSDNFAGGKTATERLIGLGHTKIGYILSGSPALQSVRQRYLGYLQALKEANLAFHTAITETNLLDEHNFKQYFEAHQLTAVVCDNDFSALHCLRNCKNLGIHVPEELSIIGFDDIQAAAFVEPPLTTMAQDFKEMGKLAGEVLLQTMQQDLQIIEDIQVPVTLIERETISTVSK”, the “soluble on expression in E. coli” value is reported as “not soluble”.
In the case of “MGSDKIHHHHHHMMTTVKDSTPAARELYLDLLVRILLNTIYQDPAINPGVRPMVVEPFNPKTRAIGKDWPTQAHTMVGQARLENLRQLSQQVLDDGIVGDFIETGVWRGGCCILMRGVLAANQIHDRKVYVADSFAGLPAPNVELYPRDTGWDLHEFKELAVSLQTVKDNFSRYGLLDEQVVFVEGMFSDTLPSLSAGPFALLRLDGDLYESTIVALNSLYPKLSRGGVVIIDDRALDPCRRAVIDFRDKHGITAPMQEVDWTGSWWRKE”, the “soluble on expression in E. coli” value is reported as “not soluble”.
For “SNIMDFNVKKLAADAGTFLSRAVQFTEEKLGQAEKTELDAHLENLLSKAECTKIWTEKIMKQTEVLLQPNPNARIEEFVYEKLDRKAPSRINNPELLGQYMIDAGTEFGPGTAYGNALIKCGETQKRIGTADRELIQTSALNFLTPLRNFIEGDYKTIAKERKLLQNKRLDLDAAKTRLKKAKAAETRNSSEQELRITQSEFDRQAEITRLLLEGISSTHAHHLRCLNDFVEAQMTYYAQCYQYMLDLQKQLGSFPSNYLSNNNQTSVTPVPSVLPNAIGSSAMASTSGLVITSPSNLSDLKECSGSRKARVLYDYDAANSTELSLLADEVITVFSVVGMDSDWLMGERGNQKGKVPITYLELLN”, the “soluble on expression in E. coli” value was “not soluble”.
For “MGSDKIHHHHHHMQVNRLFQIIYILLEKNSVTARELAEKIEVSKRTIYRDIETLSTAGIPVYMTKGKGGGISILPNFILNKAILTEEEKSEIISSIRAVNAVNFSDSEAEKVLIKLNSILGENDTDWIEVDFSNWGNAEKEKETFNNLKTAILSKKVVKFDYSSAKGENISRKVCPLKLCFKGQSWYMYGYCGIRNDYRFFKLRRIKDLYVSEESFNIKAPKKIMKEDNVFYDEFITLKMKISSKMAYRIYDEFEDFKKLDDGSFIVTAEYPKGEWLFSYISSFGEECEVLAPQEIREEIKNKIEKMLLNYS”, the “soluble on expression in E. coli” value was “not soluble”.
With “MSLIGITQRLICNDSYHEKRECLALDWGKLFNKDLFKNFTPLPLSYEIDFSYYKHLIKAVILSGGNDLSFYSPNVLSKKRDLYEKQVIEICLEEKIPLLGICRGAQMIAHYFNSHISPCENHIGKHEVFFSKEKFISNSFHNFAIEKLGEDLVELCLAKDNTIEAFKHKYENIFGIMWHIERENGLNNIQILKEWFSLIKEGHHHHHH” the “soluble on expression in E. coli” value was “not soluble”.
With “MSLTLDVWQHIRQEAKELAENEPMLASFFHSTILKHQNLGGALSYLLANKLANPIMPAISLREIIEEAYQSNPSIIDCAACDIQAVRHRDPAVELWSTPLLYLKGFHAIQSYRITHYLWNQNRKSLALYLQNQISVAFDVDIHPAAKIGHGIMFDHATGIVVGETSVIENDVSILQGVTLGGTGKESGDRHPKVREGVMIGAGAKILGNIEVGKYAKIGANSVVLNPVPEYATAAGVPARIVSQDKAAKPAFDMNQYFIGIDDGMNLNEGGSHHHHHH” the “soluble on expression in E. coli” value was “soluble”.
With “MAHHHHHHMSEALTPPDSWSHGHPDVNAELKLLRGAVAQALVEARQSSDFCRRIQHDISEYFQSEQRRRVQSGDSIESEQFIPNVMASVDGHLAEFESFIIGRVREELENKVDKDLSEKFDSYRMQLEHLRQQEEEQEARLRFILEDAVKMNCELRNEMKWCASELWDRVSAMEEKLKFMATRTHTNAGGKDVMDLGLPNALREVIGILTLLSEGLEVERELHNEERQRWMSLMSRAVEKIRLLGERDEALEANLQELRQVAAAIQHRFGEFSGFVVDFWHRLEMMGSPSVAVEDAACEGSLSMYSKAGICAKKQMDDFMKELHEVGVALRALQVEHVGFKDILDSNTVNITEIRRNVEALAVGAKLIAEERERIDREESSLDLQYLIRSTPRDGNECEGSTGTPRRGNLSLRKQWQVAHLPTLELLHGKICNIPISHAFRLWAAWASGRRQLRRDKTMVHEPQEDPDTNSLGSRK” the “soluble on expression in E. coli” value was “not soluble”.
For “MAANGVATLNSSGKLAQMPSASDVGALPITGGEMQGALKLKANQYGGSGPADEKYALDCQNSNIVNVNRILTADPAGSASEGWGFQREDDPDAYDVIWASNGTLYFTPGFKYNTPPYPANQRVLATTDNIALTNYLRQEYNKLKESEGTPTLNDIINGFGFCYNDSSNGAGLDGTYLTVSGMLDNKYRLQLLGQYNGSNWLAYRTRNGDEQSWNPWHKVLTDNINAAISARHQYTSSSYPQIYGNGILQLGGDSRNEYGVVLRSNGTDEANAFRPSVNAGTTGHLYLGVANQKWRAVFAQNGTIQTSDRNAKHDITDLDPEKITAFIMGLKPSSYVFNDADSGRTHWGLISQDIEELFPQLGMTSMDFAGFIKSPKTEDYYEDVPETVTDEETGEEKTVTRKELKTRTVEGEYIYSLRYDEFIAPLICMVQRQQRQIEYLERRLSASESKEEAKLEHHHHHH”, the “soluble on expression in E. coli” value was “not soluble”.
For “MSLQTKQKGLQEVLIAAIKRATNEKTLVSFVKQIDWVDPLLFYAAGKRISFENRCYFADPAQHVIFAGIGSVFTIANSSHKRFQTARDEWEKVKENAFVQRDEYEFGTGPLLFGGFSFDPEKEKTDLWKEFKDTTFSLPAFLLTVKNEKAWLTMNTFVSATDCAETLSNEMISLEEKILGESRCALNGSKLTVISKVEVDPKGWMKAIEKVQDEMKQGNVQKVVLARELKVEMNHSIDSALVLEALRIGQPDCYVFSFDYKGACFLGATPERLIRKEDEKFTSMCLAGSIGHGHSIEESKRNSNALLHDEKNLAEHGYVVNMIRSVLNEHCEYVNIPESPGLLTTKNLIHLYTPVEAKGDASLLTMVEELHPTPALGGTPRLEAMKLIRDVELLDRGLYGAPIGWIDDEGNGEFAVALRCGLLNGEKASLFAGCGIVIDSIPQLEYEETSLKFRPMLGALEELMKEGHHHHHH”, the “soluble on expression in E. coli” value was “soluble”.
In the case of “MYPNLFQPLDLGFTQLKNRVLMGSMHTGLEENKEGLHKLAAFYEERAKGGVGLIVTGGFSPNLRGRLHPFSAEFSKTKHAKAHKVVTEAVHRHGAKIALQLLHAGRYAMHPFSQSASAIRAPIAKFAPSEMSTRQIRNTIQDFANSAELAQLAGYDGVEVMGSEGYLINQFICKRTNMRYDEWGGSYQNRIRFPVEIVKAIREAVGKEFIIIFRLSMLDLVEQGSTFEEVVVLAKALEEAGVTIINTGIGWHEARIPTIATQVPRAAFSWVTEKIKPYLKVPVVTCNRINTPEQAEKILASGQADMVSMARPFLADADFVRKAQEGQSALINTCIGCNQACLDNVFRGKRASCLVNPRACYETEIVVKPAQSKKIAVVGAGPAGLAFATTASERGHQVDLFERNDRIGGQFRLAMQIPGKEEFRETIRYFANRIDQTGVKLHLGCEVQFSDLRGYDEVVIATGVTPRKIALAGLSESSKVVDYQTLIREKTPVGQKVAIVGAGGIGVDVASMLTEPKDQTLDDWLYEWGIDKAIEHPGGLYPYPETTSEREVWLLQRRKGAVGKGPGKTTGWIHKRTLEKRGVHLVGGVQYQKIDEQGLHIERDGKSELIDADSVVICAGQESVRPFEAQWAELGDKLHVIGGADVAGELDAARAIRQGVELAVRL”, the “soluble on expression in E. coli” value is reported as “not soluble”.
In the case of “MGSDKIHHHHHHMTAQQGVPIKITNKEIAQEFLDKYDTFLFDCDGVLWLGSQALPYTLEILNLLKQLGKQLIFVTNNSTKSRLAYTKKFASFGIDVKEEQIFTSGYASAVYIRDFLKLQPGKDKVWVFGESGIGEELKLMGYESLGGADSRLDTPFDAAKSPFLVNGLDKDVSCVIAGLDTKVNYHRLAVTLQYLQKDSVHFVGTNVDSTFPQKGYTFPGAGSMIESLAFSSNRRPSYCGKPNQNMLNSIISAFNLDRSKCCMVGDRLNTDMKFGVEGGLGGTLLVLSGIETEERALKISHDYPRPKFYIDKLGDIYTLTNNEL”, the “soluble on expression in E. coli” value is reported as “not soluble”.
With “MSGKRKLEDYKSIIGEEEVSKIQEKAEKLKGRSFVHVNSTSFGGGVAEILHSLVPLLRSIGIEARWFVIEGPTEFFNVTKTFHNALQGNESLKLTEEMKELYLNVNRENSKFIDLSSFDYVLVHDPQPAALIEFYEKKSPWLWRCHIDLSSPNREFWEFLRRFVEKYDRYIFHLPLEHHHHHH” the “soluble on expression in E. coli” value was “not soluble”.
For “MGSDKIHHHHHHMDTNKLIPLLSDMAIFVTVIEQGNFSKAAKKLGVTPSAVSRQISRLEDALGIKLLQRTTRQLALTESGKLTFDYCKQMVESADQAVNASRSATSTVSGLLRVSAPKSLANKVLRPLFVEFLKCYPDIQLHLKVTDRILDPIHDGVDFLIHINDYPIEALVNIKIGRVEQVLCASPEFLQSHTPPTHPDDLKYLSCICLGENMVDNRWRFINENQQTTVQVAGSYLLNHSDMRRDAIEQGFGIGPLPDYIAQQGIKTGKLIPLLEGWQLTGSYQGDICLQYVQSKYLPNKNRVFIDFMKQKLLIIQPDS”, the “soluble on expression in E. coli” value was “not soluble”.
In the case of “AHHHHHHGSKEKRKYFMAHRIGVIQRSKIRELFERASKMENVISLGIGEPDFDTPNNIKEAAKRALDEGWTHYTPNAGIPELREAIAEYYKKFYGIDVEVDNVLVTAGAYEATYLAFETMLEQGDEVIIPDPAFVCYVEDAKLAEAKPIRLPLREENDFKPDIDELLERITKRTRMIVINYPNNPTGAVLDKETAKAIADVAEDYNIYILSDEPYEHFLYDDAKHYPMIKFAPDNTILANSFSKTFAMTGWRLGFVIAPTQIIREMIKLHAYIIGNVASFVQVAGIEALRSKESWKAVEEMRKEYNERRKLVLQRLRKMPYIKVREPKGAFYVFPNISETEMSSEEFSEWLLEKAKVVVIPGTAFGENGEGYVRISYATSREKLIEAMDRIEKALEEI”, the “soluble on expression in E. coli” value is reported as “soluble”.
For “MGSDKIHHHHHHMKRTPGPNKRGSKRMQPNLKFSRGEFADRLAKTRRAMEARGVDLLIVSDPSNMAWLTGYDGWSFYVHQAVIVPPSGEPVWYGRGQDANGAKRTAYLAQNNIVGYADHYVQSTERHPMDFLSSVLSDRGWGKLTIGVEMDNYWFSAAAFASLQKHLPNARFVDATALVNWQRAVKSPTEIDYMRKAARIVEAMHQRIFDRIEIGMRKCDLVAEIYDAGTRGVDGIGGDYPAIVPLLPSGVDASAPHLTWDDQPMKRGEGTFFEIAGCYNRYHCPLSRTVFLGKPTQEFLDAEKATLEGMEAGLAAAKPGNACEDIANAFFAVLKKYGIVKDNRTGYSIGLSYPPDWGERTMSLRPGDHTELKPGMTFHFMTGLWLETMGLEITESILITETGVECLANVPRKLVVKN”, the “soluble on expression in E. coli” value was “not soluble”.
